For data set [1], the system named is DrDprA (Deinococcus radiodurans R1 (ATCC 13939)). The experiment in a line: EMSA. As to conditions: EMSA: 10 mM Tris-HCl pH 7.5, 50 mM NaCl, 1 mM DTT, 10 min at 37 C, 2 nM 32P probe.
Data set [2] has as its target DNA processing protein A of Deinococcus radiodurans (DrDprA), purified recombinant wild type (D. radiodurans). The experiment in a line: SPR; 2.5 uM DrDprA immobilised on a bare gold sensor chip by EDC-NHS chemistry at 20 C (Autolab Esprit); DrRecA 0.5 to 3 uM in the mobile phase, 20 mM Tris pH 7.6, 1 mM MgCl2.

167-bp dsDNA: the Kd (in general, the free concentration of one partner at which half of the binding sites on the other are occupied at equilibrium, for simple one-to-one binding) in data set [1] came out at 3.53 µM.

Regarding 167-mer ssDNA, the Kd in data set [1] stood at 3.04 µM.

B1: RecA of Deinococcus radiodurans (DrRecA), purified (natural protein)
chain: MSKDATKEISAPTDAKERSKAIETAMSQIEKAFGKGSIMKLGAESKLDVQVVSTGSLSLDLALGVGGIPRGRITEIYGPESGGKTTLALAIVAQAQKAGGTCAFIDAEHALDPVYARALGVNTDELLVSQPDNGEQALEIMELLVRSGAIDVVVVDSVAALTPRAEIEGDMGDSLPGLQARLMSQALRKLTAILSKTGTAAIFINQVREKIGVMYGNPETTTGGRALKFYASVRLDVRKIGQPTKVGNDAVANTVKIKTVKNKVAAPFKEVELALVYGKGFDQLSDLVGLAADMDIIKKAGSFYSYGDERIGQGKEKTIAYIAERPEMEQEIRDRVMAAIRAGNAGEAPALAPAPAAPEAAEA
Turning to B1, the Kd in data set [2] turned out to be 0.293 µM.

The values above are taken from publication PMC9769556.
